Reference: patent US20260139001A1 (Harvard, published 2026)

Assays:
[1] = target: T1, SARS-CoV-2 Spike RBD, Wuhan (SARS-CoV-2, UniProt P0DTC2 319-541)
[2] = target: T1, SARS-CoV-2 Spike RBD, Wuhan; remark: listed apart in the source

| Binder | EC50 [1] | Kd [2] |
| --- | --- | --- |
| LCB3-NS (LCB3 H19aNBDC) (designed binder) MNDDELHMLMTDLVYEALCFAKDEEIKKRVFQLFELADKAYKNNDRQKLEKVVEELKELLERLLS | 6400 nM | – |
| VHH72 wt (VHH) VHH: QVQLQESGGGLVQAGGSLRLSCAASGRTFSEYAMGWFRQAPGKEREFVATISWSGGSTYYTDSVKGRFTISRDNAKNTVYLQMNSLKPDDTAVYYCAAAGLGTVVSEWDYDYDYWGQGTQVTVSS | – | 45 nM |
| VHH72 NoK wt (VHH) VHH: QVQLQESGGGLVQAGGSLRLSCAASGRTFSEYAMGWFRQAPGREREFVATISWSGGSTYYTDSVRGRFTISRDNARNTVYLQMNSLRPDDTAVYYCAAAGLGTVVSEWDYDYDYWGQGTQVTVSS | – | 75 nM |
| VHH72 G56MDCcC (VHH) VHH: QVQLQESGGGLVQAGGSLRLSCAASGRTFSEYAMGWFRQAPGKEREFVATISWSGCSTYYTDSVKGRFTISRDNAKNTVYLQMNSLKPDDTAVYYCAAAGLGTVVSEWDYDYDYWGQGTQVTVSS | 1100 nM | – |
